Measurements as given in the supplement of paper PMC5998384.

Legend:
HeLa Kyoto [1] = assay: solubility change mitosis vs G1/S (difference of NP-40 vs SDS log2 ratios) (log2 ratio difference); higher = more soluble in mitosis
HeLa Kyoto [2] = assay: thermal stability score vs G1/S (z-score of summed log2 fold changes over temperatures); higher = more thermally stable than in G1/S
HeLa Kyoto [3] = assay: melting temperature (median over replicates), in situ; higher = more thermally stable
[4] = cell cycle stage: early G1 (4.5 h after nocodazole release)
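Wherever melting temperature (median over replicates), in situ is given: HeLa Kyoto cells synchronized by double thymidine or nocodazole block, proteins quantified by TMT10plex mass spectrometry, three independent biological replicates.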
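Wherever solubility change mitosis vs G1/S (difference of NP-40 vs SDS log2 ratios) is given: synchronized HeLa Kyoto cells (double thymidine block for G1/S, nocodazole release for mitosis), protein amounts in NP-40 versus SDS lysates quantified by mass spectrometry, three biological replicates.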
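Wherever thermal stability score vs G1/S (z-score of summed log2 fold changes over temperatures) is given: synchronized HeLa Kyoto cells, proteins quantified by TMT10plex mass spectrometry, three biological replicates, mitosis taken 0.5 h after nocodazole release, G1/S directly after double thymidine block.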

| Substance | solubility change mitosis (log2) (HeLa Kyoto [1]) | thermal stability score (HeLa Kyoto [2]; [4]) | thermal stability score (HeLa Kyoto [2]; cell cycle stage: mitosis) | melting temperature (HeLa Kyoto [3]; cell cycle stage: G1/S) [°C] | melting temperature (HeLa Kyoto [3]; cell cycle stage: mitosis) [°C] |
| --- | --- | --- | --- | --- | --- |
| ABCE1 | -0.151 | – | – | – | – |
| ACTR2 | -0.105 | – | – | – | – |
| AKR1B1 | -0.0682 | – | – | – | – |
| ATP1A1 | -0.0968 | – | – | – | – |
| ATP1B1 | -0.0049 | – | – | – | – |
| BRD4 | 0.176 | – | – | – | – |
| CDC73 | -0.0838 | – | – | – | – |
| CLIC1 | 0.0655 | – | – | – | – |
| CTSB | -0.123 | – | – | – | – |
| DLG1 | -0.0806 | – | – | – | – |
| EIF6 | 0.0864 | – | – | – | – |
| GTPBP4 | 0.746 | – | – | – | – |
| HAGH | 0.0733 | – | – | – | – |
| HMGN2 | 1.68 | – | – | – | – |
| ICT1 | 0.134 | – | – | – | – |
| ITPA | 0.0757 | – | – | – | – |
| MEFDCEGLRRLLGKYKFRDLTVEELRNVNVFFPHFKYSMDTYVFKDSSQKDLLNFTGTIPVMYQGNTYNIPIRFWILDSHPFAPPICFLKPTANMGILVGKHVDAQGRIYLPYLQNWSHPKSVIVGLIKEMIAKFQEELPMYSLSSSDEARQVDLLAYIAKITEGVSDTNSKSWANHENKTVNKITVVGGGELGIACTLAISAKGIADRLVLLDLSEGTKGATMDLEIFNLPNVEISKDLSASAHSKVVIFTVNSLGSSQSYLDVVQSNVDMFRALVPALGHYSQHSVLLVASQPVEIMTYVTWKLSTFPANRVIGIGCNLDSQRLQYIITNVLKAQTSGKEVWVIGEQGEDKVLTWSGQEEVVSHTSQVQLSNRAMELLRVKGQRSWSVGLSVADMVDSIVNNKKKVHSVSALAKGYYDINSEVFLSLPCILGTNGVSEVIKTTLKEDTVTEKLQSSASSIHSLQQQLKL [UEVLD] | – | -0.401 | 0.298 | 49.9 | 50.1 |
| MELWPCLAAALLLLLLLVQLSRAAEFYAKVALYCALCFTVSAVASLVCLLRHGGRTVENMSIIGWFVRSFKYFYGLRFEVRDPRRLQEARPCVIVSNHQSILDMMGLMEVLPERCVQIAKRELLFLGPVGLIMYLGGVFFINRQRSSTAMTVMADLGERMVRENLKVWIYPEGTRNDNGDLLPFKKGAFYLAVQAQVPIVPVVYSSFSSFYNTKKKFFTSGTVTVQVLEAIPTSGLTAADVPALVDTCHRAMRTTFLHISKTPQENGATAGSGVQPAQ [AGPAT2] | – | -0.0581 | 0.548 | – | 52.2 |
| MGLEAQRLPGAEEAPVRVALRVRPLLPKELLHGHQSCLQVEPGLGRVTLGRDRHFGFHVVLAEDAGQEAVYQACVQPLLEAFFEGFNATVFAYGQTGSGKTYTMGEASVASLLEDEQGIVPRAMAEAFKLIDENDLLDCLVHVSYLEVYKEEFRDLLEVGTASRDIQLREDERGNVVLCGVKEVDVEGLDEVLSLLEMGNAARHTGATHLNHLSSRSHTVFTVTLEQRGRAPSRLPRPAPGQLLVSKFHFVDLAGSERVLKTGSTGERLKESIQINSSLLALGNVISALGDPQRRGSHIPYRDSKITRILKDSLGGNAKTVMIACVSPSSSDFDETLNTLNYASRAQNIRNRATVNWRPEAERPPEETASGARGPPRHRSETRIIHRGRRAPGPATASAAAAMRLGAECARYRACTDAAYSLLRELQAEPGLPGAAARKVRDWLCAVEGERSALSSASGPDSGIESASVEDQAAQGAGGRKEDEGAQQLLTLQNQVARLEEENRDFLAALEDAMEQYKLQSDRLREQQEEMVELRLRLELVRPGWGGPRLLNGLPPGSFVPRPHTAPLGGAHAHVLGMVPPACLPGDEVGSEQRGEQVTNGREAGAELLTEVNRLGSGSSAASEEEEEEEEPPRRTLHLRRNRISNCSQRAGARPGSLPERKGPELCLEELDAAIPGSRAVGGSKARVQARQVPPATASEWRLAQAQQKIRELAINIRMKEELIGELVRTGKAAQALNRQHSQRIRELEQEAEQVRAELSEGQRQLRELEGKELQDAGERSRLQEFRRRVAAAQSQVQVLKEKKQATERLVSLSAQSEKRLQELERNVQLMRQQQGQLQRRLREETEQKRRLEAEMSKRQHRVKELELKHEQQQKILKIKTEEIAAFQRKRRSGSNGSVVSLEQQQKIEEQKKWLDQEMEKVLQQRRALEELGEELHKREAILAKKEALMQEKTGLESKRLRSSQALNEDIVRVSSRLEHLEKELSEKSGQLRQGSAQSQQQIRGEIDSLRQEKDSLLKQRLEIDGKLRQGSLLSPEEERTLFQLDEAIEALDAAIEYKNEAITCRQRVLRASASLLSQCEMNLMAKLSYLSSSETRALLCKYFDKVVTLREEQHQQQIAFSELEMQLEEQQRLVYWLEVALERQRLEMDRQLTLQQKEHEQNMQLLLQQSRDHLGEGLADSRRQYEARIQALEKELGRYMWINQELKQKLGGVNAVGHSRGGEKRSLCSEGRQAPGNEDELHLAPELLWLSPLTEGAPRTREETRDLVHAPLPLTWKRSSLCGEEQGSPEELRQREAAEPLVGRVLPVGEAGLPWNFGPLSKPRRELRRASPGMIDVRKNPL [KIF7] | – | 1.88 | 2.73 | 52.4 | 51.4 |
| MREIVHIQAGQCGNQIGAKFWEVISDEHGIDPSGNYVGDSDLQLERISVYYNEASSHKYVPRAILVDLEPGTMDSVRSGAFGHLFRPDNFIFGQSGAGNNWAKGHYTEGAELVDSVLDVVRKECENCDCLQGFQLTHSLGGGTGSGMGTLLISKVREEYPDRIMNTFSVVPSPKVSDTVVEPYNATLSIHQLVENTDETYCIDNEALYDICFRTLKLATPTYGDLNHLVSATMSGVTTSLRFPGQLNADLRKLAVNMVPFPRLHFFMPGFAPLTARGSQQYRALTVPELTQQMFDAKNMMAACDPRHGRYLTVATVFRGRMSMKEVDEQMLAIQSKNSSYFVEWIPNNVKVAVCDIPPRGLKMSSTFIGNSTAIQELFKRISEQFTAMFRRKAFLHWYTGEGMDEMEFTEAESNMNDLVSEYQQYQDATAEEEGEMYEDDEEESEAQGPK [TUBB3] | – | -0.669 | 0.329 | 52.3 | 54.3 |
| MREIVHIQAGQCGNQIGAKFWEVISDEHGIDPTGSYHGDSDLQLERINVYYNEAAGNKYVPRAILVDLEPGTMDSVRSGPFGQIFRPDNFVFGQSGAGNNWAKGHYTEGAELVDSVLDVVRKESESCDCLQGFQLTHSLGGGTGSGMGTLLISKIREEYPDRIMNTFSVMPSPKVSDTVVEPYNATLSVHQLVENTDETYSIDNEALYDICFRTLKLTTPTYGDLNHLVSATMSGVTTCLRFPGQLNADLRKLAVNMVPFPRLHFFMPGFAPLTSRGSQQYRALTVPELTQQMFDSKNMMAACDPRHGRYLTVAAIFRGRMSMKEVDEQMLNVQNKNSSYFVEWIPNNVKTAVCDIPPRGLKMSATFIGNSTAIQELFKRISEQFTAMFRRKAFLHWYTGEGMDEMEFTEAESNMNDLVSEYQQYQDATADEQGEFEEEEGEDEA [TUBB2A] | – | -0.598 | -2.95 | 56.7 | 54.9 |
| MREYKLVVLGSGGVGKSALTVQFVQGIFVEKYDPTIEDSYRKQVEVDAQQCMLEILDTAGTEQFTAMRDLYMKNGQGFALVYSITAQSTFNDLQDLREQILRVKDTDDVPMILVGNKCDLEDERVVGKEQGQNLARQWNNCAFLESSAKSKINVNEIFYDLVRQINRKTPVPGKARKKSSCQLL [RAP1B] | – | -0.701 | -1.33 | 58.5 | 58.5 |
| MRLVILDNYDLASEWAAKYICNRIIQFKPGQDRYFTLGLPTGSTPLGCYKKLIEYHKNGHLSFKYVKTFNMDEYVGLPRNHPESYHSYMWNNFFKHIDIDPNNAHILDGNAADLQAECDAFENKIKEAGGIDLFVGGIGPDGHIAFNEPGSSLVSRTRLKTLAMDTILANAKYFDGDLSKVPTMALTVGVGTVMDAREVMILITGAHKAFALYKAIEEGVNHMWTVSAFQQHPRTIFVCDEDATLELRVKTVKYFKGLMHVHNKLVDPLFSMKDGN [GNPDA2] | – | -0.549 | -0.194 | 58.1 | 58.3 |
| MRSPVRDLARNDGEESTDRTPLLPGAPRAEAAPVCCSARYNLAILAFFGFFIVYALRVNLSVALVDMVDSNTTLEDNRTSKACPEHSAPIKVHHNQTGKKYQWDAETQGWILGSFFYGYIITQIPGGYVASKIGGKMLLGFGILGTAVLTLFTPIAADLGVGPLIVLRALEGLGEGVTFPAMHAMWSSWAPPLERSKLLSISYAGAQLGTVISLPLSGIICYYMNWTYVFYFFGTIGIFWFLLWIWLVSDTPQKHKRISHYEKEYILSSLRNQLSSQKSVPWVPILKSLPLWAIVVAHFSYNWTFYTLLTLLPTYMKEILRFNVQENGFLSSLPYLGSWLCMILSGQAADNLRAKWNFSTLCVRRIFSLIGMIGPAVFLVAAGFIGCDYSLAVAFLTISTTLGGFCSSGFSINHLDIAPSYAGILLGITNTFATIPGMVGPVIAKSLTPDNTVGEWQTVFYIAAAINVFGAIFFTLFAKGEVQNWALNDHHGHRH [SLC17A5] | – | -3.39 | -4.02 | 57.3 | 57.6 |
| MSLLNCENSCGSSQSESDCCVAMASSCSAVTKDDSVGGTASTGNLSSSFMEEIQGYDVEFDPPLESKYECPICLMALREAVQTPCGHRFCKACIIKSIRDAGHKCPVDNEILLENQLFPDNFAKREILSLMVKCPNEGCLHKMELRHLEDHQAHCEFALMDCPQCQRPFQKFHINIHILKDCPRRQVSCDNCAASMAFEDKEIHDQNCPLANVICEYCNTILIREQMPNHYDLDCPTAPIPCTFSTFGCHEKMQRNHLARHLQENTQSHMRMLAQAVHSLSVIPDSGYISEVRNFQETIHQLEGRLVRQDHQIRELTAKMETQSMYVSELKRTIRTLEDKVAEIEAQQCNGIYIWKIGNFGMHLKCQEEEKPVVIHSPGFYTGKPGYKLCMRLHLQLPTAQRCANYISLFVHTMQGEYDSHLPWPFQGTIRLTILDQSEAPVRQNHEEIMDAKPELLAFQRPTIPRNPKGFGYVTFMHLEALRQRTFIKDDTLLVRCEVSTRFDMGSLRREGFQPRSTDAGV [TRAF6] | – | 0.286 | -0.125 | 51.5 | 51.3 |
| MSSVQSQQEQLSQSDPSPSPNSCSSFELIDMDAGSLYEPVSPHWFYCKIIDSKETWIPFNSEDSQQLEEAYSSGKGCNGRVVPTDGGRYDVHLGERMRYAVYWDELASEVRRCTWFYKGDKDNKYVPYSESFSQVLEETYMLAVTLDEWKKKLESPNREIIILHNPKLMVHYQPVAGSDDWGSTPTEQGRPRTVKRGVENISVDIHCGEPLQIDHLVFVVHGIGPACDLRFRSIVQCVNDFRSVSLNLLQTHFKKAQENQQIGRVEFLPVNWHSPLHSTGVDVDLQRITLPSINRLRHFTNDTILDVFFYNSPTYCQTIVDTVASEMNRIYTLFLQRNPDFKGGVSIAGHSLGSLILFDILTNQKDSLGDIDSEKDSLNIVMDQGDTPTLEEDLKKLQLSEFFDIFEKEKVDKEALALCTDRDLQEIGIPLGPRKKILNYFSTRKNSMGIKRPAPQPASGANIPKESEFCSSSNTRNGDYLDVGIGQVSVKYPRLIYKPEIFFAFGSPIGMFLTVRGLKRIDPNYRFPTCKGFFNIYHPFDPVAYRIEPMVVPGVEFEPMLIPHHKGRKRMHLELREGLTRMSMDLKNNLLGSLRMAWKSFTRAPYPALQASETPEETEAEPESTSEKPSDVNTEETSVAVKEEVLPINVGMLNGGQRIDYVLQEKPIESFNEYLFALQSHLCYWESEDTVLLVLKEIYQTQGIFLDQPLQ [DDHD2] | – | 1.25 | 0.742 | 55.4 | 54.7 |
| MTQNKLKLCSKANVYTEVPDGGWGWAVAVSFFFVEVFTYGIIKTFGVFFNDLMDSFNESNSRISWIISICVFVLTFSAPLATVLSNRFGHRLVVMLGGLLVSTGMVAASFSQEVSHMYVAIGIISGLGYCFSFLPTVTILSQYFGKRRSIVTAVASTGECFAVFAFAPAIMALKERIGWRYSLLFVGLLQLNIVIFGALLRPIFIRGPASPKIVIQENRKEAQYMLENEKTRTSIDSIDSGVELTTSPKNVPTHTNLELEPKADMQQVLVKTSPRPSEKKAPLLDFSILKEKSFICYALFGLFATLGFFAPSLYIIPLGISLGIDQDRAAFLLSTMAIAEVFGRIGAGFVLNREPIRKIYIELICVILLTVSLFAFTFATEFWGLMSCSIFFGFMVGTIGGTHIPLLAEDDVVGIEKMSSAAGVYIFIQSIAGLAGPPLAGLLVDQSKIYSRAFYSCAAGMALAAVCLALVRPCKMGLCQHHHSGETKVVSHRGKTLQDIPEDFLEMDLAKNEHRVHVQMEPV [SLC16A6] | – | -2.68 | -4.18 | 54.8 | 54.4 |
